Like-named read-outs stand apart in the source and are kept apart here. Bridges are numbered along the chain shown (N, C = ends). Where no end group is shown, it is not given here.
Key:
[1] = biological target: T1, FcεRI-IgG (UniProt P12319 26-205); assay: competitive phage ELISA: g3 peptide-phage on immobilized FcεRI-IgG, soluble FcεRI-IgG titrated
T1 construct: extracellular domain; Produced from CHO cells (Genentech); also called FcεRI-Fc; bivalent fusion protein of the extracellular domain of FcεRI and the Fc domain of IgG; not shown: Fc domain of IgG
T1 sequence (looked up): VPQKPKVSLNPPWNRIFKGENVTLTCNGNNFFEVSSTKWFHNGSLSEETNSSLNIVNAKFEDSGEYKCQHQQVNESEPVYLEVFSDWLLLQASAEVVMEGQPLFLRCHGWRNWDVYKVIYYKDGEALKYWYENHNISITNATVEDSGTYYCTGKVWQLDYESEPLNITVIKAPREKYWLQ
Text: (§1) Peptide sequences from g8p-fused phage clones that specifically bound FcεRI-IgG were transferred onto a g3p-display format for monovalent phage display (Bass et al., *Proteins* 8, 309–314 (1990); Lowman et al., *Biochemistry* 30, 10832–10838 (1991)). An oligonucleotide encoding for each desired peptide with additional 5' and 3' base pair that overlapped with g3 was synthesized. This oligonucleotide was annealed with a g3 single stranded DNA phagemid template. The mutagenesis reaction was transformed into XL-1 Blue *E. coli* and plated on LB-carb+ agar plates. Individual colonies were propagated in 5 mL of 2YT broth, tetracycline, carbenicillin and VCSM13 helper phage (Stratagene). Single stranded DNA was isolated from the purified phage particles and sequenced to confirm the insertion of the phage peptide sequence. 25 mL preparations of g3 phage clones were propagated overnight and purified by PEG precipitation. After resuspension of the phage pellet in 1.0 mL of PBS, it was serially diluted 1/3 and incubated with immobilized FcεRI-IgG 2 ug/mL in a 96 well Maxisorp microtiter plate for 1 hour at room temperature. The wells were washed 10× with PBST then incubated with 100 uL of anti M13 phage HRP as described above. An OD(492) value corresponding to less than 50% binding was selected and the purified phage clones were diluted to yield this normalized level of signal. […] The mixture was then transferred to 96 well microtiter dishes containing immobilized FcεRI-IgG. After a 1-hour incubation period, the plates were washed 10 times, incubated with anti M13-HRP conjugated antibody and developed with OPD as described above.

[2] = biological target: T2, alpha subunit of the human FcεRI receptor expressed on cells (human, UniProt P12319 26-257); assay: IgE inhibition assay (Table 9)
T2 construct: whole, on cells; on rat basophil RBL-48 cells in the histamine release assay; also called CHO FcεRI+ cells; cell surface expressed FcεRI
T2 sequence (looked up): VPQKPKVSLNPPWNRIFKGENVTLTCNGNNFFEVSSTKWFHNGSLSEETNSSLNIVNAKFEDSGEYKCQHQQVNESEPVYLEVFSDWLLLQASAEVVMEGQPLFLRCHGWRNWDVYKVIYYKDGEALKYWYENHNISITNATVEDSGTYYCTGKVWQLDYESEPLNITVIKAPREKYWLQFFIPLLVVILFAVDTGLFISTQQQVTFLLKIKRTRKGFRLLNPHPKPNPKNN

[3] = biological target: T1, FcεRI-IgG; assay: competitive phage ELISA; relative to g3c.42
Description: as §1, with “This” for “Peptide sequences from g8p-fused phage clones that specifically bound FcεRI-IgG were transferred onto a g3p-display format for monovalent phage display (Bass et al., *Proteins* 8, 309–314 (1990); Lowman et al., *Biochemistry* 30, 10832–10838 (1991)). An oligonucleotide encoding for each desired peptide with additional 5' and 3' base pair that overlapped with g3 was synthesized. This”
(§2) In addition, stepwise N-terminal and C-terminal truncations of the peptide sequence were constructed. All constructs were made by designing oligonucleotides corresponding to the desired substitution or truncation, with an additional 18 bp of DNA overlapping the peptide or g3 phage DNA sequence. The phage clones were propagated overnight following infection in XL-1 Blue *E. coli*. Purified phage preparations were titered and assayed for binding to immobilized receptor. FcεRI-IgG competition assays were performed as described above.

[4] = biological target: T1, FcεRI-IgG; assay: competitive phage ELISA: g3 peptide-phage on immobilized FcεRI-IgG, soluble FcεRI-IgG titrated; remark: listed apart in the source
Description: as §1, with “This” for “Peptide sequences from g8p-fused phage clones that specifically bound FcεRI-IgG were transferred onto a g3p-display format for monovalent phage display (Bass et al., *Proteins* 8, 309–314 (1990); Lowman et al., *Biochemistry* 30, 10832–10838 (1991)). An oligonucleotide encoding for each desired peptide with additional 5' and 3' base pair that overlapped with g3 was synthesized. This”
as §2

[5] = biological target: T2, alpha subunit of the human FcεRI …; assay: cell-based or functional assay
[6] = biological target: T2, alpha subunit of the human FcεRI …; assay: inhibition of 125I-IgE binding to CHO cells expressing human FcεRI alpha
Description: To determine the ability of peptides to inhibit IgE binding to FcεRI, a cell-based binding assay was used with radiolabeled IgE. Chinese hamster ovary cells expressing the alpha subunit of the human FcεRI receptor were cultured overnight in Falcon 96 well microtiter plates at a concentration of 5 ×10^4 cells per well. The following day the cells were rinsed three times with PBS and then once with F12/DMEM. Peptide stocks were reconstituted in 100 mM Hepes buffered water, pH 7.2, at a concentration of 5 mg/mL. Working concentrations of the peptide were diluted in assay buffer (see below). 75 uL of a desired concentration of peptide was added to the top row of a separate 96 well microtiter plate and serially diluted 1:3 in 50 uL of the assay buffer (F12/DMEM, 1% BSA, 0.05% NaN_3 and 0.025 mM Hepes pH 7.2). Starting concentrations ranged from 50–500 uM. Next, 50 uL of the diluted peptide was transferred to the 96 microtiter well plate containing a monolayer of CHO FcεRI+ cells. […] Cells were
Alanine substitutions in IGE063 (SEQ ID NO:49) were used to assess sidechain contributions. The P9A (IGE070, SEQ ID NO:52) substitution had the largest impact with a >500× reduction in binding. […] Clearly the alanine substitutions at G8, P9, W10, G11 and W12 all had major impacts on binding FcεRI.

B1: g3b.6 peptide-phage (peptide)
peptide: GRAQCTEGPWGWVCMAAD
modifications: not fully specified (bridges); cysteine pairing not given here
notes: not shown: fused to M13 gene-3 protein (g3p) on phage
IC50 [1]: 16 nM

CPHFCYFGAELCPDVCY-NH2 (disulfide (positions not given here)) [IGE170]
fold difference in activity against IGE167 [2]: ≤ 2 fold

VQCPHFCYFGGAELCPGVCYV-NH2 (disulfide 3-15, 7-19) [IGE136]
fold difference in activity against IGE135 [2]: ~2 fold

B2: g3c.1 peptide-phage (peptide)
peptide: LPRCTEGPWGWVCMAAD
modifications: not fully specified; cysteine pairing not given here
notes: Monovalent g3p phage display; not shown: fused to M13 gene-3 protein (g3p) on phage
Relative (IC50) (fold weaker) [3]: 1 fold
IC50 [4]: 3 nM

IVCARLCYVGGKALCPDVCYV-NH2 (disulfide 3-15, 7-19, P4A of IGE120) [IGE127]
fold reduced activity against its control peptide [2]: 50 fold

B3: g3b.5 peptide-phage (peptide)
peptide: AMAQCTEGPWGWVCMAAD
modifications: not fully specified; cysteine pairing not given here
notes: as for B1
IC50 [1]: 10 nM

B4: IGE150 (peptide)
peptide: VQCPHFCYVGGKALCPDVCDV-NH2
modifications: disulfide (positions not given here); also: two intramolecular disulfide bonds, pairing not given here
notes: Y20D of IGE122
fold loss in activity [2]: ~5 fold

B5: IGE142 (peptide)
peptide: VQCAHFCYVGGHALCPDVCYVGR
modifications: disulfide (positions not given here); also: two intramolecular disulfide bonds, pairing not given here
notes: P4A of IGE132; made in E. coli as a Z-domain fusion and cleaved with trypsin
fold reduced activity against its control peptide [2]: > 100 fold

B6: IGE155 (peptide)
peptide: CPHFCYELDYELCPDVCY-NH2
modifications: disulfide (positions not given here); also: two intramolecular disulfide bonds, pairing not given here
fold difference in activity against IGE134 [2]: ≤ 2 fold

NLPRCTEGPWGWVCM (disulfide 5-14 (inferred)) [peptide NLPRCTEGPWGWVCM (SEQ ID NO:27)]
IC50 of inhibition of ragweed induced histamine release (RBL-48 cells, ragweed specific IgE) [5]: 13000 nM

B7: g3b.8 peptide-phage (peptide)
peptide: GRTECTEGPWGWVCMAAD
modifications: not fully specified (bridges); cysteine pairing not given here
notes: as for B1
IC50 [1]: 14 nM

Ac-CPHFCYFGAELCPDVCY-NH2 (disulfide (positions not given here)) [IGE171]
fold difference in activity against IGE167 [2]: ≤ 2 fold

B8: g3c.29 peptide-phage (peptide)
peptide: NLPRCTEGPWGWVCMAA
modifications: not fully specified (bridges); cysteine pairing not given here
notes: as for B2
Relative (IC50) (fold weaker) [3]: 1 fold
IC50 [4]: 5 nM

ALCPAVCYV-NH2 (also: antiparallel disulfide-linked homodimer, interchain C3-C7' and C7-C3') [IGE089]
IC50 of inhibition of ragweed induced histamine release (RBL-48 cells, 0.1 nM ragweed specific human IgE) [5]: 8000 nM

B9: g3b.4 peptide-phage (peptide)
peptide: VMPTCTEGPWGWVCMAAD
modifications: not fully specified (bridges); cysteine pairing not given here
notes: as for B1
IC50 [1]: 7 nM

B10: g3c.34 peptide-phage (peptide)
peptide: NLPRCTEGPWGWVCM
modifications: not fully specified; cysteine pairing not given here
notes: as for B1
Relative (IC50) (fold weaker) [3]: 3 fold
IC50 [4]: 14.6 nM

B11: g3b.1 peptide-phage (peptide)
peptide: NLPRCTEGPWGWVCMAAD
modifications: disulfide 5-14 (inferred); not fully specified
notes: as for B1
IC50 [1]: 13 nM

B12: g3b.3 peptide-phage (peptide)
peptide: NLPTCTEGPWGWVCMAAD
modifications: not fully specified (bridges); cysteine pairing not given here
notes: as for B1
IC50 [1]: 7 nM

B13: IGE131 (peptide)
peptide: VQCPHFCYVGGKVQCPHFCYV-NH2
modifications: disulfide 3-15, 7-19
notes: The text speaks of it as D17H against IGE122
fold reduced activity against IGE122 [2]: > 10 fold

B14: g3b.7 peptide-phage (peptide)
peptide: DLPACTEGPWGWVCMAAD
modifications: not fully specified; cysteine pairing not given here
notes: as for B1
IC50 [1]: 9 nM

IVCPRLCYELDYELCPDVCYV-NH2 (disulfide 3-15, 7-19) [IGE141]
fold difference in activity against IGE120 [2]: 2 fold

B15: g3c.31 peptide-phage (peptide)
peptide: NLPRCTEGPWGWVCMA
modifications: not fully specified (bridges); cysteine pairing not given here
notes: as for B2
Relative (IC50) (fold weaker) [3]: 1 fold
IC50 [4]: 6.1 nM

NLPRCTEGPWGWVCMAAD (disulfide 5-14 (inferred), also called optimized peptide) [synthetic peptide NLPRCTEGPWGWVCMAAD (SEQ ID NO:18)]
IC50 of inhibition of ragweed induced histamine release (RBL-48 cells, ragweed specific IgE) [5]: 10000 nM
IC50 [6]: 1000 nM
fold improvement over the … (SEQ ID NO:1) peptide [6]: > 160 fold
fold improvement over the … (SEQ ID NO:8) peptide [6]: 40 fold

Reference: patent US7101851 (dated 2006)
